Test results: publication PMC10877974

Legend:
[1] = biological target: Ad35K++ (recombinant adenovirus serotype 35 fiber knob protein with affinity-enhancing mutations) (adenovirus serotype 35); test: SEC; Superdex 200 Increase 10/300 GL, 1x Tris-buffered saline, 1 mL/min; cGMP grade Ad35K++
[2] = biological target: Ad35K++ (recombinant adenovirus serotype 35 fiber knob protein with affinity-enhancing mutations) (adenovirus serotype 35); test: SDS-PAGE of unboiled sample; reduced 4-15% gradient gel, Laemmli sample buffer with beta-mercaptoethanol, sample not boiled, Coomassie Blue

With “Ad35K++ (recombinant adenovirus serotype 35 fiber knob protein with affinity-enhancing mutations) (domain or fragment)” the stoichiometry N [1] was 3 and the stoichiometry N [2] was 3.
